For 108 sequences, AmyQ secretion efficiency results are on record in the supplement of paper PMC9942255.

Several values for one entry are separate records, joined by “and”; a condition that tells them apart may be missing. Equal values may be shown once.

In this data set the test system is Bacillus subtilis DB104 (SP-AmyQ fusion secretion). In words: AmyQ secretion efficiency, weighted average sort bin (1 = best secretion, 10 = worst) (bin number (weighted average, 1-10)); higher = lower secretion efficiency. In outline:
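A B. subtilis DB104 library carrying amyE-integrated fusions of designed signal peptides to mature AmyQ was encapsulated at about 0.3 cells per ~65 nL alginate bead with fluorescein-starch and grown about 13 h at room temperature. Following nile red staining, occupied beads were flow-sorted as large particles into 10 equally populated bins by green/red fluorescence ratio, and the bin amplicons were Illumina-sequenced. The secretion score is the read-frequency-weighted average bin number normalised to beads per bin, leaving out low-abundance sequences.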

Sequence MGLGKKLSVAVAASFMSLSISLPGVQPAEG registered an AmyQ secretion efficiency of 4.8.

For the sequence MAIIIAIIAAVIVIAALITFNVRNISPG, the AmyQ secretion efficiency stood at 7.65.

Turning to MKLSVKIAGVLTVAAAAMTAKMYFTAKGN, the AmyQ secretion efficiency came out at 7.66.

Take MKKIVSILFMFGLVMGFSQFQPSTGFAADK: the AmyQ secretion efficiency was 3.91.

MNFKKTVRKRRSISALALSVSGVASAHEI: the AmyQ secretion efficiency came to 7.55.

The sequence MKKWMITIAMRTLAGIALFVFISPLKSHKT showed an AmyQ secretion efficiency of 7.06.

MLKKKWMVGLLAGCLAAGGFSYNAFATSD returned an AmyQ secretion efficiency of 4.28.

Turning to MYKGWLIQFAVMLSVLSTFTYSASAVGV, the AmyQ secretion efficiency was 5.73.

For the sequence MKRMIVRMTKKRRIVCLAFSSFSASARAASE, the AmyQ secretion efficiency turned out to be 5.68.

As to MKKWIYVVLVLSIAGIGGFSAFGPVTAVHAASS, the AmyQ secretion efficiency came to 2.96.

MKKGIIRKTLVSFVLFFALSTGITGVQAAPA registered an AmyQ secretion efficiency of 2.

In turn, MRPVFPLILSAVLFLSCFFGATQTEASASKR had an AmyQ secretion efficiency of 2.13.

MKKMLGKLLITAGILVFFAVVVKDVFAAGL came in with an AmyQ secretion efficiency of 7.15.

The sequence MKKRLIGFLVLVPALIMSGITLIESNKK yielded an AmyQ secretion efficiency of 5.98.

As to MRPVFPLILIAVLFLFCFSFGARQTEASASKR, the AmyQ secretion efficiency worked out at 2.07.

MKQFAITLSVLCALILLVPTLLVIPFQHNKEAKASV yielded an AmyQ secretion efficiency of 5.85.

On to MKRKRLLSSLAISALSLGLLVSAPTASFAAES, for which the AmyQ secretion efficiency was 2.64 and 3.51.

MKKSQYFIVFICFFVLFSVHPIAGAAADS registered an AmyQ secretion efficiency of 3.96.

On to MKKGQYRRGSLGLVFGFSYGAGHVAEAKTK, for which the AmyQ secretion efficiency came out at 7.9.

Take MKQIMIFLMIFMLLAMTGQTALAKDV: the AmyQ secretion efficiency turned out to be 4.05.

Turning to MKKKKRRIVSILFMFGLVMGFSQFQPSTVFAADK, the AmyQ secretion efficiency amounted to 3.29.

In turn, MAIIIAIIAAVIVIAALITFNVCNASPG registered an AmyQ secretion efficiency of 7.28.

MRKAVFVIMISFLIATVNVNTAHAAID returned an AmyQ secretion efficiency of 3.36.

The sequence MKKTIMSFVAVAALSTTAFGAHASYKEI yielded an AmyQ secretion efficiency of 7.

Consider MKRFLIGAGVAAVILSGWFIADHQTHSQEM, for which the AmyQ secretion efficiency was 7.62 and 6.01 and 6.59.

MKKKKKRVGLLAGCLAAGGFSYNAFATEN: the AmyQ secretion efficiency was found to be 6.9.

Take MKLRKVLTGSVLSLGLLVSASPTFATSP: the AmyQ secretion efficiency came out at 1.93.

MKRIRIPMTLRKKRALTIAPLSFASAEEN returned an AmyQ secretion efficiency of 7.44.

MRKTKKRKLTGLMMFGTITAASASPD yielded an AmyQ secretion efficiency of 4.65.

Sequence MKKLVLCVSILAVILSGVVLTQLS gave an AmyQ secretion efficiency of 5.78.

MKNMSCKLVVSVTLFFSFLTIGPLAHAQED showed an AmyQ secretion efficiency of 2.36.

Take MKRRKRRYLLLGILCSAAVFLIGAPSRALGAEV: the AmyQ secretion efficiency came out at 1.61.

With MKRFSTAYLLLGILCSAAVFLIGAPSRALGKKK, the AmyQ secretion efficiency was 7.04.

As to MKQFAITLSVLCALILLVPTLLVIPFQHNKMAGASV, the AmyQ secretion efficiency came to 5.07.

In turn, MKLAKRVSALTPSTTLAITAKMKEL displayed an AmyQ secretion efficiency of 6.79.

As to MKSCKQLIVCSLAAILLLIPSVSFAAPR, the AmyQ secretion efficiency came out at 1.96.

For MKNMSCKLVVSVTLFFSFLTIGPLAHLQNS, the AmyQ secretion efficiency came out at 6.

As to MKKKRALTLCPAIVGSLLFFTAPASAHVS, the AmyQ secretion efficiency amounted to 3.92.

MKVCQKSIVRFLVSLIIGTFVISVPFMANAEED displayed an AmyQ secretion efficiency of 3.09.

Sequence MKRLLSTLLIGIMLLEQQPKAFAKQD had an AmyQ secretion efficiency of 1.64.

MKKQIITATTAVVLGSTLFAGAASAQSD: the AmyQ secretion efficiency worked out at 2.54.

In the case of MKRLFMKASLVLFAVVFVFAVKGAPAKAATH, the AmyQ secretion efficiency came to 1.71.

Sequence MNKPTKLFSTLALAAAAAAGGAGTIHAQQP showed an AmyQ secretion efficiency of 1.43.

Sequence MNLRKILLSSALSLGMLVSAAPVLQTSS yielded an AmyQ secretion efficiency of 5.33.

Take MNKLKRLSMLTVMIASVFIFSSSHALAAQY: the AmyQ secretion efficiency stood at 1.68.

Consider MRPVFPLILSAVLFLSCFFGARQTEFSASKR, for which the AmyQ secretion efficiency came to 7.3.

MRPVFPGKGQYVLFLSCFFGARQTEASASKR yielded an AmyQ secretion efficiency of 6.9.

As for MKRLLVSLRVWMVFLMNWVTPDRKTAASAVY, the AmyQ secretion efficiency amounted to 6.03.

Sequence MNFMFTVVSALSISALALSVSGVASAHEI registered an AmyQ secretion efficiency of 3.15.

In turn, MKKQIITATTAVVLGSTLFAGAPPATASVPVVGASAQSI gave an AmyQ secretion efficiency of 2.17.

MKTLRTLCVLMILSGVIFFGLKIDADDD: the AmyQ secretion efficiency came out at 6.82.

For the sequence MLCVMMLLFSAIASFPVSAQMKDQ, the AmyQ secretion efficiency came out at 6.09.

For the sequence MKLWMRKTLRRLFTIVTFGLVSPPAALMADKP, the AmyQ secretion efficiency is 7.18.

Sequence MKKRLIAPMLLSAASLAFFAMSGSRQAAAY displayed an AmyQ secretion efficiency of 6.03.

Sequence MKKAAAVLLSLGLVFGFSYGAGHVAEAATS returned an AmyQ secretion efficiency of 2.5.

Regarding MRKLKRVLLLLVTGLFMSLFAVTATASAQTG, the AmyQ secretion efficiency was 1.02.

The sequence MTMLRKIIGWILLLCIIPLFAFTVIASTKEV yielded an AmyQ secretion efficiency of 7.17.

MKWMCTKCCTYQQLAGGAAQAEAV: the AmyQ secretion efficiency stood at 7.81.

Consider MKWMCMICCAAVLLAMIGAAQAEAV, for which the AmyQ secretion efficiency is 3.44.

Consider MKKRLIAPMLLSAASLAFFAMSGSSGAAGPSPAAQAAAY, for which the AmyQ secretion efficiency was determined as 4.83.

In turn, MKMKSGMEQAVSVLLLLSRLPVQASLTSD returned an AmyQ secretion efficiency of 6.62.

The sequence MMKKLFHSTLIVLLFFSFFGVQPCHAKKQ gave an AmyQ secretion efficiency of 1.69.

In turn, MRKNRILALFVLSLGLLSFMVTPVSTASK gave an AmyQ secretion efficiency of 5.93.

The sequence MKTKTLFIFSAILTLSIFAPNECFAQTA returned an AmyQ secretion efficiency of 2.92.

MKKKQVMLALTAAAGLGLTALHSAPAVKAAPL returned an AmyQ secretion efficiency of 1.99.

As for MNLRKILLSSALSLGMLVSAAPWLATSS, the AmyQ secretion efficiency was 6.1.

As to MKKVLMAFIICLSLILRRRKKPPSGAKAESV, the AmyQ secretion efficiency is 7.24.

MKLAKRVSALTPSTTLAITAKIKEL: the AmyQ secretion efficiency came out at 7.25.

Take MIAYFGKCLLLVTIMFLGVLFGMQQVNHG: the AmyQ secretion efficiency was 6.78.

Take “MKKRLIAPMLLSAASLAFFAALIFILLLTFMSGSAQAAAY”: the AmyQ secretion efficiency came out at 3.37.

For MTMLRKIIGWILLLCIIPLFAFTVIMSGKEV, the AmyQ secretion efficiency worked out at 7.42.

For the sequence MMKKLFHSTLIVLLFFSFFGVQPIHAAED, the AmyQ secretion efficiency was found to be 3.19.

On to MRSYIKVLTMCFLGLILFVPTTVVALADNS, for which the AmyQ secretion efficiency is 2.15.

As to MKRIRIPMTLALGAALTIAPLSFASNEEN, the AmyQ secretion efficiency is 7.9.

Take MKKLVLCVSILAVILSGVALYQLS: the AmyQ secretion efficiency was 4.11.

For MLKRTSFVSSLFISSAVLLSILLPSGQAHARKR, the AmyQ secretion efficiency was determined as 3.12.

In the case of MKNMSCKLVVSVTLFFSFLTIGPLYHAQNS, the AmyQ secretion efficiency amounted to 5.32.

In the case of MKRLLVSLRVWMVFLMNWVTPDRKTAAAAVD, the AmyQ secretion efficiency worked out at 7.62.

MKLSVKIAGVLTVAAAAMTAKMYATAKKK showed an AmyQ secretion efficiency of 5.42.

MKLSVKIAGVLTVAAAAMTAKMYWTAKGN showed an AmyQ secretion efficiency of 7.62.

MKKKLAAGLTASAIVGTTLVEDEEDAEAATI: the AmyQ secretion efficiency is 6.91.

MRKYTVIASILLSFLSVLESKAFPV returned an AmyQ secretion efficiency of 4.71.

As for MKKIVSILFMFGLVMGFSQFQPSTVFGADK, the AmyQ secretion efficiency was found to be 4.23.

In turn, MRKKTKNRLISSVLSTVVISSLLFPQEAGASSK showed an AmyQ secretion efficiency of 1.83.

For MKKRLIAPMLLSAASLAFFAMSGSAQAAEE, the AmyQ secretion efficiency turned out to be 2.23.

In turn, MNFKKTVVSALSISALALRKRRKRASAHEI returned an AmyQ secretion efficiency of 7.78.

In the case of MFKKLLLATSALTFSLSLVLPLDGHYKAQEV, the AmyQ secretion efficiency stood at 6.94.

MKRLFMKLLTTTASLVLFAVVFVFAVKGAPAKAETH had an AmyQ secretion efficiency of 2.87.

For the sequence MRKKLKWLSFLLGFIILLFLFKKRKKRFSNNDS, the AmyQ secretion efficiency worked out at 7.3.

As to MKLAKRVSALTPSTTLAIATAKAKEL, the AmyQ secretion efficiency is 7.06.

Regarding MPYLKRMINFNNVLLLLVTGLFMSLFAVTATASAQTG, the AmyQ secretion efficiency turned out to be 1.05.

With MKLRKVLTGSVLSLGLLEKDSPAFATSP, the AmyQ secretion efficiency is 6.38.

MKKKSQQQGGVSAVVGSSMAAAPAEAKTI returned an AmyQ secretion efficiency of 7.9.

MKRIRIPMTLALGAALTIAPLSFKSAEEN gave an AmyQ secretion efficiency of 6.9.

MLKKKWMVGLLAGCLAAGGFSYNAFMTEN had an AmyQ secretion efficiency of 6.25.

Sequence MKLKKRVSMFKKALTMCGGLFVTPAKAVKT showed an AmyQ secretion efficiency of 7.21.

Take MLCVMMLLFSAIASFPVSKQAKDQ: the AmyQ secretion efficiency came out at 7.19.

MRPVFPLILSAVLFLSCFTGARQTEASASKR: the AmyQ secretion efficiency turned out to be 3.07.

MKKKLAAGLTASAIVGTTLVVTPAETATI: the AmyQ secretion efficiency came out at 5.92.

MIAYFGKCLLLVTIMFLGVLFVMQQANHG came in with an AmyQ secretion efficiency of 7.39.

The sequence MRKKTKNRLISSVLSTVVISSLLFPGAAGASSD displayed an AmyQ secretion efficiency of 2.47.

MNKLKRLSMLTVMIASVFIFSSHQLAAQY yielded an AmyQ secretion efficiency of 4.72.

On to MRKKLKWLSFLLGFIILLFLFKYQFSFNDS, for which the AmyQ secretion efficiency was found to be 6.3.

MNLRKTYGSSALSLGMLVSAAPVLATSS returned an AmyQ secretion efficiency of 6.93.

MKTPKGMLLSTAAGLLLSLTATSVSAHYV: the AmyQ secretion efficiency was 5.33.

MKLKSKLFVICLAAATAAGVSANAEALDF showed an AmyQ secretion efficiency of 5.89.

MKKAFLVFLSVVLVTTVFLVKQQESVCQAKQL displayed an AmyQ secretion efficiency of 4.58.

MKVPKTMLLSTAAGLLLSLKKRSVSAHYV: the AmyQ secretion efficiency is 6.92.
